Assay results reported in US6544548B1, “Keratin-based powders and hydrogel for pharmaceutical applications” (Keraplast Technologies, Ltd., priority 1999, dated 2003).

How the values were obtained:
Format in all cases: physicochemical
[1] = Loading of acetaminophen into keratin tablets (tablet disintegrated in water, HPLC); details: acetaminophen bound to H2O2-oxidized keratin, 500 mg tablets
Description: Evaluation of the loading of acetaminophen was accomplished by disintegrating a single tablet into a known volume of water over a one week period at room temperature. In addition, that samples were sonicated for 90 minutes prior to sampling. A sample of the solution was withdrawn and analyzed by HPLC.

[2] = Dissolution test (USP rotating paddle) of drug-loaded oxidized keratin tablets in simulated gastric fluid; details: 500 mg tablets of drug bound to H2O2-oxidized keratin, 37 C
Description: Dissolution tests are performed according to the standard United States Pharmacopoeia (USP) rotating paddle method. In this method, the volume of the dissolution medium is fixed and agitation is provided under defined conditions by the stainless steel paddle. A 1L volume of purified water or simulated gastric fluid (Lot. No. 76H9312, Sigma-Aldrich, St. Louis, Mo.) was used at 37° C.±0.5° C. The temperature of the dissolution medium was maintained at 37° C. by immersing the dissolution flask in a water bath. A cover was used on the system to avoid water loss through evaporation. […]
During the test, small volumes of sample were withdrawn at various time points, for example, every 20 minutes within the first hour (including a 0 time point) and every hour after that for 8 hours. […] High-performance liquid chromatography (HPLC) was performed on the samples and the amount released from the dosage form calculated based on a calibration curve generated from solutions with known concentrations of the compound of interest.
Tablet samples that incorporated the vasoconstrictor norephedrine were prepared by binding the drug to oxidized keratin in an ion exchange step. […] This was accomplished by dissolving a measured amount of norephedrine into ethanol, adding 5 g of oxidized keratin and heating to reflux for 2 hours, followed by stirring at room temperature for 24 hours. […]

[3] = Dissolution test (USP rotating paddle) of albumin from keratin tablets and capsules
Description: Dissolution tests are performed according to the standard United States Pharmacopoeia (USP) rotating paddle method. In this method, the volume of the dissolution medium is fixed and agitation is provided under defined conditions by the stainless steel paddle. A 1L volume of purified water or simulated gastric fluid (Lot. No. 76H9312, Sigma-Aldrich, St. Louis, Mo.) was used at 37° C.±0.5° C. The temperature of the dissolution medium was maintained at 37° C. by immersing the dissolution flask in a water bath. A cover was used on the system to avoid water loss through evaporation. After the temperature equilibrated, the samples were allowed to sink to the bottom of the vessel before rotation of the paddle. Rotation speed was kept constant at 50 rpm.
During the test, small volumes of sample were withdrawn at various time points, for example, every 20 minutes within the first hour (including a 0 time point) and every hour after that for 8 hours. Samples were taken from a precise point in the dissolution flask, halfway between the surface of the dissolution medium and the top of the rotating paddle, and not less than 10 mm from the wall of the vessel. The volume withdrawn during sampling was replaced with an equal volume of media, pre-warmed to 37° C. High-performance liquid chromatography (HPLC) was performed on the samples and the amount released from the dosage form calculated based on a calibration curve generated from solutions with known concentrations of the compound of interest.
Samples containing albumin were made in tablet and capsule forms. Tablets were prepared by co-grinding a mixture of 80/20 dry keratin absorbent powder/bovine albumin. The keratin absorbent powder was prepared as described in Section VI. B supra, and the albumin was purchased from Sigma Chemical Co., St. Louis, Mo. (Lot No. 69H1257, Fraction V, 96% purity). The solid mixture was further homogenized by shaking in a closed container. Samples of 500 mg of the powder mixture were made into tablets using a pellet press at 30,000 psi (400 mg keratin, 100 mg albumin). The dissolution profile of these tablets was measured by the rotating paddle method.
Albumin capsules were prepared by dissolving 2 g of albumin in 200 g of deionized water. The albumin solution was added to 8 g of absorbent keratin powder to form a hydrogel. The hydrogel was thoroughly mixed and poured into petri dishes. The water was removed under vacuum at room temperature. After drying for approximately 36 hours, the resulting solid was ground using a mortar and pestle. 400 mg of the ground keratin/albumin powder (320 mg keratin/80 mg albumin) was placed into each of several two-part gelatin capsules (No. 0, Eli Lilly and Co., Indianapolis, Ind.). The dissolution profile of these tablets was measured using the rotating paddle method.

Compound	loading level in keratin tablets [1]	time over which bound drug is released [2] [h]	release of albumin, water versus gastric fluid, compared with tablets ([3]; gelatin capsules (320 mg keratin/80 mg albumin, intimately mixed via hydrogel))	amount of albumin released over an equivalent time period, capsules versus tablets ([3]; gelatin capsules, intimately mixed via hydrogel)	disintegration and release of albumin ([3]; keratin tablets (400 mg keratin, 100 mg albumin, mechanically mixed), purified water, 37 C)	equilibrium amount of albumin released, gastric fluid versus water ([3]; keratin tablets, simulated gastric fluid)	release of albumin ([3]; keratin tablets, simulated gastric fluid, 37 C)
CC(=O)Nc1ccc(O)cc1 [acetaminophen, 4-Acetaminophenol]	low	5					
CC(N)C(O)c1ccccc1 (centres unmarked) [norephedrine, Phenylpropanolamine]		2					
albumin: bovine albumin (Sigma, Fraction V, 96% purity) formulated with keratin absorbent powder as tablets or gelatin capsules			identical trend	much less material was released	almost immediate and complete	significantly lower	immediate
